T1: purified recombinant human CTLA-4 (human, UniProt P16410 36-161, limits assumed)
T1 construct: also called purified CTLA-4; purified recombinant CTLA-4
T1 sequence (looked up): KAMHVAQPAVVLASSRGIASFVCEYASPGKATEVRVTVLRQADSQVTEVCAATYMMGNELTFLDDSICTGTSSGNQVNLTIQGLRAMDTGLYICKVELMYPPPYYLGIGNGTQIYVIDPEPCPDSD


What was measured:
[1] = target: T1, purified recombinant human CTLA-4; assay: competitive ELISA on CTLA-4: unlabelled IgG 0-6666 ng/ml against biotin-labelled BNI 3.1
[2] = target: T1, purified recombinant human CTLA-4; assay: competitive ELISA on CTLA-4: unlabelled IgG 0-6666 ng/ml against biotin-labelled 3A4
[3] = target: human CTLA-4 expressed on cells (human) (UniProt P16410); assay: flow cytometry (FACScan), cell line expressing recombinant CTLA-4, FITC-anti human IgG
macaque CTLA-4 (macaque) = assay: as above
murine CTLA-4 (murine) = murine CTLA-4 (murine) (UniProt P09793); assay: as above
murine CTLA-4 (murine), sequence (P09793 36-223): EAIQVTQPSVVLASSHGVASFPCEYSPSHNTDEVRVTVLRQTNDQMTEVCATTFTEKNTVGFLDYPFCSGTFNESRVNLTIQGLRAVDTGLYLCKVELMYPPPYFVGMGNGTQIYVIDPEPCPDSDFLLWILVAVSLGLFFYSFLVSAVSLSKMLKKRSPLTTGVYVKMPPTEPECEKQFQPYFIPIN

Row | IC50 (read off the curve) [1] [µg/mL] | IC50 (read off the curve) [2] [µg/mL] | MFI [3] [MFI] | MFI (macaque CTLA-4 (macaque)) [MFI] | MFI (murine CTLA-4 (murine)) [MFI] | Molecule
1 | 0.5 | 0.09 |  |  |  | BNI3 (antibody)
2 |  |  | 3 | 4 | 5 | isotype control (Table 5) (antibody)
3 |  | ~0.2 |  |  |  | 1E2 (antibody, V domains shown, Human anti-CTLA-4 monoclonal antibody) VH: QVQLVESGGGVVQPGRSLRLSCAASGFTFSSYGMHWVRQAPGKGLEWVAVIWYDGSNKYYADSVKGRFTISRDNSKNTLYLQMNSLRAEDTAVFYCARAPNYIGAFDVWGQGTMVTVSS VL: DIQMTQSPSSLSASVGDRVTITCRASQGISSWLAWYQQKPEKAPKSLIYAASSLQSGVPSRFSGSGSGTDFTLTISSLQPEDFATYYCQQYNSYPPTFGQGTKVEIK

Source: US20020086014A1 (Bristol-Myers Squibb, published 2002)
